Measured values taken from PMC5579192, “De novo design of antibody complementarity determining regions binding a FLAG tetra-peptide” (Scientific Reports, 2017).

Tests used:
Settings in all cases: both partners purified
[1] = biological target: T1, MBP-KEE ligand (EE peptide) (peptide tag (EE/Glu-Glu), derived from …); experiment: ELISA; wells coated with carrier protein ligands (10 μg/mL); purified Fab serially diluted; detected with goat-anti-human kappa-HRP
T1 construct: EE peptide presented by MBP
T1 chain: EYMPME

[2] = biological target: T2, carrier protein (scFv 14B7) with the minimal DYKD peptide at the n-terminus (synthetic peptide tag (minimal FLAG)); experiment: as above
T2 construct: minimal FLAG peptide at the protein n-terminus; irrelevant scFv 14B7 used as carrier protein; also called n-DYKD; n-DYKD ligand; source: plasmid pAK400/14B7
T2 chain: DYKD

[3] = biological target: T3, carrier protein (scFv 14B7) with the minimal DYKD peptide at the n-terminus (synthetic peptide tag (minimal FLAG)); experiment: as above; remark: listed apart in the source
T3 construct: minimal FLAG peptide at the protein n-terminus; irrelevant scFv 14B7 used as carrier protein; also called n-DYKD; n-DYKD ligand; source: plasmid pAK400/14B7

[4] = biological target: T1, MBP-KEE ligand (EE peptide); experiment: as above
[5] = biological target: T1, MBP-KEE ligand (EE peptide); experiment: ELISA; monoclonal phage ELISA: phage purified by NaCl-PEG precipitation, serially diluted at known pfu, on wells coated with ligand (4 μg/ml); detected with anti-M13-HRP; signal shown at 10^11 pfu

Binder | binding result [1] | binding result [5] | further results
EEh13.6 Fab (Fab, V domains shown, VH as the VH of m1: framework of the αEE scFv (PDB 3NN8) with designed CDRs H1-H3; heavy chain constant part of the Fab from the vector pFabF; not described; VL as in the αEE scFv (PDB 3NN8), not modified in the EEh library; kappa light chain constant domain from the vector pFabF; human by the detection reagent (goat anti-human kappa); This Fab co-purified with free light chain (33 % monomer); …) VH: QVQLQQSGPEDVKPGASVKISCKASGDSLSSFNAGVNWVKQSPGKGLEWLAHGAVMSTRYNPSLKSRATLTVDKTSSTVYLELRSLTSEDSSVYYCAKSTGRYDFWGQGTTVTVSS VL: DIVMTQTPSSLPVSLGDQASISCRSSQSIVHSNGNTYLEWYLQKPGQSPKLLIYKVSNRFSGVPDRFSGSGSGTDFTLKISRVEAEDLGIYYCFQGSLVPPTFGAGTKLELK | no binding |  | EC50 [2]: 21 nM
EEh14.3 Fab (Fab, V domains shown, VH as the VH of m2: framework of the αEE scFv (PDB 3NN8) with designed CDRs H1-H3; heavy chain constant part of the Fab from the vector pFabF; not described; VL as in the αEE scFv (PDB 3NN8), not modified in the EEh library; kappa light chain constant domain from the vector pFabF; human by the detection reagent (goat anti-human kappa); also called Fab EEh14.3) VH: QVQLQQSGPEDVKPGASVKISCKASGDSLSSYNAGVNWVKQSPGKGLEWLAHMAGVSTRYNPSLKSRATLTVDKTSSTVYLELRSLTSEDSSVYYCVRNEWSGAFWGQGTTVTVSS VL: DIVMTQTPSSLPVSLGDQASISCRSSQSIVHSNGNTYLEWYLQKPGQSPKLLIYKVSNRFSGVPDRFSGSGSGTDFTLKISRVEAEDLGIYYCFQGSLVPPTFGAGTKLELK | no binding |  | EC50 [2]: 50 nM
EEf15.4 Fab (Fab, V domains shown, VH as the VH of m3: framework of the αEE scFv (PDB 3NN8) with designed CDRs H1-H3; heavy chain constant part of the Fab from the vector pFabF; not described; VL as the VL of m3: framework of the αEE scFv (PDB 3NN8) with designed CDRs L1-L3; kappa light chain constant domain from the vector pFabF; human by the detection reagent (goat anti-human kappa); also called Fab EEf15.4) VH: QVQLQQSGPEDVKPGASVKISCKASGFSIKGANVNWVKQSPGKGLEWLAHVRGDASTRYNPSLKSRATLTVDKTSSTVYLELRSLTSEDSSVYYCADRKMYSFYSGGEAWGQGTTVTVSS VL: DIVMTQTPSSLPVSLGDQASISCRSSNARSGSLEWYLQKPGQSPKLLIYDGNNRFSGVPDRFSGSGSGTDFTLKISRVEAEDLGIYYCSAFDQTNKYVGFGAGTKLELK | no binding |  | EC50 [3]: 4.1 nM
EEf15.4a Fab (Fab, V domains shown, VH as the VH of m4: as EEf15.4 except CDR H1, which is that of design EEf5.1; framework of the αEE scFv (PDB 3NN8); heavy chain constant part of the Fab from the vector pFabF; not described; VL as the VL of m3: framework of the αEE scFv (PDB 3NN8) with designed CDRs L1-L3; kappa light chain constant domain from the vector pFabF; human by the detection reagent (goat anti-human kappa); also called …) VH: QVQLQQSGPEDVKPGASVKISCKASGYIGSSHTVNWVKQSPGKGLEWLAHVRGDASTRYNPSLKSRATLTVDKTSSTVYLELRSLTSEDSSVYYCADRKMYSFYSGGEAWGQGTTVTVSS VL: DIVMTQTPSSLPVSLGDQASISCRSSNARSGSLEWYLQKPGQSPKLLIYDGNNRFSGVPDRFSGSGSGTDFTLKISRVEAEDLGIYYCSAFDQTNKYVGFGAGTKLELK | no binding |  | EC50 [3]: 4.8 nM
αEE Fab (parental) (Fab, V domains shown, VH of the αEE scFv; heavy chain constant part of the Fab; not described; VL of the αEE scFv; kappa light chain constant domain; human by the detection reagent (goat anti-human kappa); also called parental αEE Fab; source: bacterial periplasm, purified Fab) VH: QVQLQQSGPEDVKPGASVKISCKASGYSLSTSGMGVNWVKQSPGKGLEWLAHIYWDDDKRYNPSLKSRATLTVDKTSSTVYLELRSLTSEDSSVYYCARRGGSSHYYAMDYWGQGTTVTVSS VL: DIVMTQTPSSLPVSLGDQASISCRSSQSIVHSNGNTYLEWYLQKPGQSPKLLIYKVSNRFSGVPDRFSGSGSGTDFTLKISRVEAEDLGIYYCFQGSLVPPTFGAGTKLELK |  |  | EC50 [4]: 35.3 nM
EEf15.4 scFv displayed on phage (scFv, V domains shown, VL: framework of the αEE scFv (PDB 3NN8) with designed CDRs L1-L3; model PDB file in the supplementary datasets; linker, printed as (GGGGS)4; VH: framework of the αEE scFv (PDB 3NN8) with designed CDRs H1-H3; Orientation VL-(GGGGS)4-VH; no amino acid differences from αEE outside the CDRs; also called EEf15.4 scFv-phage; source: E. coli, scFv fused to truncated pIII on phage (phagemid pMopac24); …) VH: QVQLQQSGPEDVKPGASVKISCKASGFSIKGANVNWVKQSPGKGLEWLAHVRGDASTRYNPSLKSRATLTVDKTSSTVYLELRSLTSEDSSVYYCADRKMYSFYSGGEAWGQGTTVTVSS VL: DIVMTQTPSSLPVSLGDQASISCRSSNARSGSLEWYLQKPGQSPKLLIYDGNNRFSGVPDRFSGSGSGTDFTLKISRVEAEDLGIYYCSAFDQTNKYVGFGAGTKLELK |  | no binding | 
EEf15.4a scFv displayed on phage (scFv, V domains shown, VL as the VL of EEf15.4: framework of the αEE scFv (PDB 3NN8) with designed CDRs L1-L3; linker, printed as (GGGGS)4; VH as the VH of EEf15.4 except CDR H1, which is that of design EEf5.1; framework of the αEE scFv (PDB 3NN8); Result of a gene synthesis error that combined CDR H1 of EEf5.1 with the other five CDRs of EEf15.4; also called EEf15.4a scFv-phage; source: E. coli, scFv fused …) VH: QVQLQQSGPEDVKPGASVKISCKASGYIGSSHTVNWVKQSPGKGLEWLAHVRGDASTRYNPSLKSRATLTVDKTSSTVYLELRSLTSEDSSVYYCADRKMYSFYSGGEAWGQGTTVTVSS VL: DIVMTQTPSSLPVSLGDQASISCRSSNARSGSLEWYLQKPGQSPKLLIYDGNNRFSGVPDRFSGSGSGTDFTLKISRVEAEDLGIYYCSAFDQTNKYVGFGAGTKLELK |  | no binding | 
EEh13.6 scFv displayed on phage (scFv, V domains shown, VL as in the αEE scFv (PDB 3NN8); the light chain was not modified in the EEh library; linker, printed as (GGGGS)4; VH: framework of the αEE scFv (PDB 3NN8) with designed CDRs H1-H3; model PDB file in the supplementary datasets; Orientation VL-(GGGGS)4-VH; no amino acid differences from αEE outside the CDRs; also called EEh13.6 scFv-phage; source: E. coli, scFv fused to truncated pIII on phage …) VH: QVQLQQSGPEDVKPGASVKISCKASGDSLSSFNAGVNWVKQSPGKGLEWLAHGAVMSTRYNPSLKSRATLTVDKTSSTVYLELRSLTSEDSSVYYCAKSTGRYDFWGQGTTVTVSS VL: DIVMTQTPSSLPVSLGDQASISCRSSQSIVHSNGNTYLEWYLQKPGQSPKLLIYKVSNRFSGVPDRFSGSGSGTDFTLKISRVEAEDLGIYYCFQGSLVPPTFGAGTKLELK |  | no binding | 
EEh14.3 scFv displayed on phage (scFv, V domains shown, VL as in the αEE scFv (PDB 3NN8); the light chain was not modified in the EEh library; linker, printed as (GGGGS)4; VH: framework of the αEE scFv (PDB 3NN8) with designed CDRs H1-H3; model PDB file in the supplementary datasets; Orientation VL-(GGGGS)4-VH; no amino acid differences from αEE outside the CDRs; also called EEh14.3 scFv-phage; source: E. coli, scFv fused to truncated pIII on phage …) VH: QVQLQQSGPEDVKPGASVKISCKASGDSLSSYNAGVNWVKQSPGKGLEWLAHMAGVSTRYNPSLKSRATLTVDKTSSTVYLELRSLTSEDSSVYYCVRNEWSGAFWGQGTTVTVSS VL: DIVMTQTPSSLPVSLGDQASISCRSSQSIVHSNGNTYLEWYLQKPGQSPKLLIYKVSNRFSGVPDRFSGSGSGTDFTLKISRVEAEDLGIYYCFQGSLVPPTFGAGTKLELK |  | no binding | 
